Data as given in paper PMC6331215 (Journal of molecular biology, 2018).

Tests used:
[1] = target: M. marinum EspG3 (construct for SAXS) (M. marinum E11) (UniProt B2HNX0); assay: SAXS
SAXS = target: the molecule itself; assay: SAXS

In the case of “M. marinum EspG3 (construct for SAXS) (from UniProt B2HNX0 1-298) (natural protein)”, the dimeric fraction at 4.0 mg/ml (wing-shaped dimer model, 4L4W) [1] is reported as 1 and the dimeric fraction at 6.0 mg/ml (wing-shaped dimer model, 4L4W) [1] is reported as 1.

B1: M. marinum EspG1 (natural protein)
chain: MTGPLATGRAGTGDDVVGVEVTIDGMLVIADRLHLVDFPVTLGIRPNIPQEDLREIVWDQVARDLTAQGVLDHNGQPHPAVAAMVDTLSRADRTLEGRWWRRDVGGVMVRFVVCRKGERHVIAVRDGDMLVLQLVAPRVGLAGMVTAVLGTAEPANVEPLTGIASELGECTNAAQLTRYGLTPTTARLYTEIVTNPKSWVEIVASERHPGGTTTHTKAAAGVLDSAHGRLVSLPRQVGGELYGSFLPGTEQNLQRALDSLLELLPSGSWLDRADATARG
With B1 the “stoichiometry N” value (SAXS) was 2.
